This is an account of results in article PMC5732184, “Arabidopsis Basic Helix-Loop-Helix 34 (bHLH34) Is Involved in Glucose Signaling through Binding to a GAGA Cis-Element”.

In data set [1] the target is T1, His-bHLH34 (Arabidopsis thaliana) (UniProt Q9LTC7).
T1 sequence: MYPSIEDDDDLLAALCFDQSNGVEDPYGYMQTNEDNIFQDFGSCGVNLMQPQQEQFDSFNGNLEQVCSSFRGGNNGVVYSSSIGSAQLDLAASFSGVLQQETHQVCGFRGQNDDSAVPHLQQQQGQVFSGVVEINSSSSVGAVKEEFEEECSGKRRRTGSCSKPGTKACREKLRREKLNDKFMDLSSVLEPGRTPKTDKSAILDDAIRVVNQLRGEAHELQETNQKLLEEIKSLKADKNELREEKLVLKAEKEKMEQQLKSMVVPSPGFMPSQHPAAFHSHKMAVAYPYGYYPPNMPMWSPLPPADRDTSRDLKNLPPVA
The data set is described as follows: EMSA. The conditions noted are these: 10 mM Tris-HCl pH 7.5, 50 mM KCl, 1 mM EDTA, 1 mM DTT, 2.5% glycerol, 1 ug poly(dI-dC), 100 ng protein, 0.3 pmol DNA in 20 uL; 25 C 20 min; 5% native PAGE in …. (In EMSA bound probe runs differently from free probe, usually more slowly.)

Data set [2] deals with T2, His-bHLH34 (Arabidopsis thaliana, UniProt Q9LTC7 1-320).
T2 sequence: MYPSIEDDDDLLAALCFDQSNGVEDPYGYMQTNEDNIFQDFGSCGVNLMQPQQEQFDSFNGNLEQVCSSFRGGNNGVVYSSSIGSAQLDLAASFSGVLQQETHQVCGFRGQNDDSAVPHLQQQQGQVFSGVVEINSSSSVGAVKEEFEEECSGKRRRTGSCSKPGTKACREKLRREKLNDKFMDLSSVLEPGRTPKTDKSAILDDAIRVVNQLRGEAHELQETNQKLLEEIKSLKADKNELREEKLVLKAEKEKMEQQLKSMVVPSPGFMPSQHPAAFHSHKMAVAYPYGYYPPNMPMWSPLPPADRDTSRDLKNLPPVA
Briefly: EMSA; 10 mM Tris-HCl pH 7.5, 50 mM KCl, 1 mM EDTA, 1 mM DTT, 2.5% glycerol, 1 ug poly(dI-dC), 100 ng protein, 0.3 pmol DNA in 20 uL; 25 C 20 min; 5% native PAGE in TBE at 4 C. The conditions noted are these: protein: recombinant; tags: His tag (pET300/NT-DEST); chain copies: 2; label: 32P; blunt.

Data set [3] addresses T2, His-bHLH34. The data set is described as follows: competition; 10-100x excess against 32P-DBE1; 10 mM Tris-HCl pH 7.5, 50 mM KCl, 1 mM EDTA, 1 mM DTT, 2.5% glycerol, 1 ug poly(dI-dC), 100 ng protein, 0.3 pmol DNA in 20 uL; 25 C 20 min; 5% native PAGE in TBE at 4 C. The note with it: protein: recombinant; tags: His tag (pET300/NT-DEST); chain copies: 2; blunt.

For “GAAGAAGAGACGGCCTATCACGCTTCTGTAGCCTCCACCAGGAGAGGTTGGTCTAGAACAGTACACCACTTCCCAATCTGCACCAAATCCCACAAGTTCACATATTGATCCAAGGAAGAAGCAA (double strand) [P1 fragment (-999 to -875)]”, the binding result in data set [1] was “binds”. As to “GTGATGGAGGTGTGACGCTAAGCCCTGAGCAGCACAAGGAGGTGGCACAAGTGGCCGGAGAGCTTCAAAAGTACTGTGTCAAGGAGCCTGTCAAAAATCCTCTCATTTTTGGAGGTAAAAGTGTAAGAACCTAGCTGCCA (double strand) [P2 fragment (-874 to -735)]”, the binding result in data set [1] is on record as “binds”.

Consider “AACCACGGACTCAGATCCATTCCTCGAGACGTTTGAATCTCCCTCTTCAATATTCAATCCCGTACAAGGTGTTACGGAGTAGGAGTAGAAGATTAGGACTCGTCGTCAGTTCTGTTTCAGCTCCCAACGTTGAGCTCCGT (double strand) [P4 fragment (-594 to -456)]”, for which the binding result in data set [1] is listed as “binds”. Consider “TATTCGCAACCTATTCACAATTCACAAACTTTCAAATAAATGCGCCAAACTAAGTCAGATCCTCAAGATCGGTGTATACAAATCAGAAATCGTTACACAACCTTAGAGAGGAGGGTAGAAATGAGATCATCAGGTCCAGT (double strand) [P3 fragment (-734 to -595)]”, for which, in data set [1], the binding entry is recorded as “binds”.

B1: DBE1 (dsDNA)
DNA 1: AGAAGAGACGGC
DNA 2: GCCGTCTCTTCT
In the case of B1, the binding result in data set [2] was “binds”.

B2: DBE2 (dsDNA)
DNA 1: CCAGGAGAGGTT
DNA 2: AACCTCTCCTGG
Consider B2, for which the binding result in data set [2] is “binds”.

B3: DBE3 (dsDNA)
DNA 1: AAATGAGAGGAT
DNA 2: ATCCTCTCATTT
On to B3, for which the binding result in data set [2] is reported as “binds”.

B4: DBE1 m3 (dsDNA)
DNA 1: AGAAGATACGGC
DNA 2: GCCGTATCTTCT
Turning to B4, in data set [2], the binding result is reported as “no binding”.

B5: DBE6 (dsDNA)
DNA 1: GAGGGAGATTCA
DNA 2: TGAATCTCCCTC
Consider B5, for which the binding result in data set [2] is reported as “binds”.

B6: E-box (dsDNA)
DNA 1: CCGGCCACTTGTGCCA
DNA 2: TGGCACAAGTGGCCGG
As to B6, in data set [2], the binding result is “binds”.

B7: DBE1 m4 (dsDNA)
DNA 1: AGAAGAGTCGGC
DNA 2: GCCGACTCTTCT
In the case of B7, in data set [2], the binding result is “no binding”.

B8: DBE5 (dsDNA)
DNA 1: AAATGAGATCAT
DNA 2: ATGATCTCATTT
Consider B8, for which, in data set [2], the binding result is on record as “binds”.

B9: DBE1 m1 (dsDNA)
DNA 1: AGAATAGACGGC
DNA 2: GCCGTCTATTCT
For B9, the binding result in data set [2] was “no binding”.

B10: DBE4 (dsDNA)
DNA 1: CTTAGAGAGGAG
DNA 2: CTCCTCTCTAAG
For the molecule B10, the binding result in data set [2] is on record as “binds”.

B11: DBE1 m2 (dsDNA)
DNA 1: AGAAGTGACGGC
DNA 2: GCCGTCACTTCT
In the case of B11, the binding result in data set [2] is reported as “no binding”.

B12: DBE1 unlabeled competitor (dsDNA)
DNA 1: AGAAGAGACGGC
DNA 2: GCCGTCTCTTCT
On to B12, for which, in data set [3], the binding result is reported as “binds”.
